Reference: the RNAGym collection of RNA variant scans (doi:10.1021/acssynbio.7b00057)

B1: Pistol ribozyme (parent)
chain: GGGUCGUUGUUCCAUAAUCGCGUGGAUAUGGCACGCAAGUUUCUACCGGGCACCGUAAAUGUCCGACUGGAGCCGUUCGGGCGGCUAUAAACAGACCUCAGGCCCGAAGCGUGGCGGCACCUGCCGCCGGUGGUAAAAAAGAUCGGAAGAGCACACGUCU

Variants of: B1
Assay: aptazyme ON/OFF ratio, guanine; higher = stronger switching; co-transcriptional cleavage with and without guanine

Row | Variant | aptazyme ON/OFF ratio
1 | U7G U8A G9C U10A U11A C12U C13A | 1.04
2 | U10C U11G C12A C13A | 1.27
3 | U7G U8G U11C C12G | 1.15
4 | U7C U8C U10C U11C | 1.46
5 | U7A U8A U10A C12G | 1.26
6 | U7A U8G G9C U10A C12G C13U | 1.28
7 | U7C U8A G9A U10C U11A C12A C13U | 1.15
8 | U7G G9C U11C C12G | 1.65
9 | U8C G9U U10C C12U C13G | 1.07
10 | U7C U8A U10A C12A | 1.3
11 | U7C U8C G9U U10A C13G | 1.09
12 | U7A U8A U10C U11C C12A C13U | 1.12
13 | U7G U8A G9A U10C U11A C12G C13A | 1.11
14 | G9A U11G C13A | 1.37
15 | U7G U8A G9C U10G U11G C12G C13G | 1.05
16 | U7C U8A G9C U10G U11A C12U C13U | 1.14
17 | U7A U8A U10G C13U | 1.22
18 | U7C U8G G9A U10A U11G C13A | 1.2
19 | U7A U8A G9U U10A | 1.25
20 | U7A U8C U10A U11A C12U C13A | 1.18
21 | U7G G9A U10A U11G C12G C13A | 1.09
22 | U7A G9C U10G C12G C13A | 1.07
23 | U7G U10G U11C C12A | 1.25
24 | U7A U8A G9A U10C U11G C13G | 1.24

Row | Variant | aptazyme ON/OFF ratio
25 | U7G G9A U11G C12G C13U | 1.16
26 | U8C G9U C12A C13A | 1.28
27 | U7G G9C U10C C12A | 1.5
28 | U7A U8A G9C U10G U11G C13U | 1.48
29 | U7A U8G G9U U10A C12U | 1.4
30 | U7C U8C G9U U11G C13U | 1.16
31 | U7C U8A G9U U10G U11C C12A C13U | 1.27
32 | U7A U8A G9A U11A C12U | 1.35
33 | U7A U8C G9U U11C C12A | 1.28
34 | U7A U8A G9U U10C C12G C13A | 1.31
35 | U8A G9C U11C C12G C13G | 1.05
36 | U7A U8A G9A U10A C13G | 1.05
37 | U7G U8A G9C U10G U11A C12A | 1
38 | U7A U8C U11A C13G | 1.13
39 | U8C G9A U10C | 3.49
40 | U8G G9C U11C C12U C13A | 1.03
41 | U8G G9C U10A U11A C12U | 1.18
42 | U7G U8C G9C U10C U11A C12U C13U | 1.05
43 | U7A U8C G9U U10C U11A C12A C13G | 1.1
44 | U7A U8A G9A U10A U11G C12U C13G | 1.24
45 | U7G G9A U11G C12A | 1.17
46 | U8G G9C U10C C13A | 1.03
47 | U8C G9C U10A U11C C12U C13G | 1.17
48 | U7C U8G U11G C12A C13U | 1.18

Row | Variant | aptazyme ON/OFF ratio
49 | U7C G9U U10G U11A C13A | 1.09
50 | U7A U8C U10G U11G C12U C13A | 1.23
51 | U8G U11G C12U | 1.33
52 | U7A U8C U10A U11G C12G C13G | 1.28
53 | U8C U10A C12G | 1.21
54 | U8C G9U U10C U11C C13A | 1.03
55 | U7G U8C G9C U10A U11A C12G C13U | 1.13
56 | U7C U10A U11C | 1.04
57 | U8C G9C U10A U11C C13G | 1.2
58 | U8G G9U U11G C12A C13A | 1.14
59 | U7C U8G G9C U10C U11C C12G C13U | 1.07
60 | U8A G9U U10A C12U C13G | 1.18
61 | U7A U8C G9U U11G C13U | 1.27
62 | U7G U8G G9A U10G C12U | 1.29
63 | U7G U8A G9A U11G C12U | 1.44
64 | U7G U8C U10G U11C C12U C13G | 1.23
65 | U7A U8C U10G C12A C13U | 1.15
66 | U7C G9A U10G U11G C12U C13G | 1.05
67 | U7A G9A U10C U11A C12G C13A | 1.19
68 | U8A U10G U11G C12U C13U | 1.43
69 | U8A G9C U10A U11C C12U C13G | 1.15
70 | U7A U10C C12G C13U | 1.28
71 | U7A U8C G9C U10G U11G C12A C13U | 1.08
72 | U7C U8G U10C C12U C13G | 1.3

Row | Variant | aptazyme ON/OFF ratio
73 | U7G U8G G9U U11A C12G C13A | 1.15
74 | U8A G9U U11A | 1.79
75 | U7C U8A G9A U10C | 3.41
76 | U8C U10G U11A C12A C13G | 1.15
77 | U7C G9U U11G C12U C13U | 1.3
78 | U10A U11A C12A C13G | 1.18
79 | U7G U8C G9C U10C U11G C13A | 1.07
80 | U7C U8A G9A U10G U11C C12A C13G | 1.1
81 | U8G G9C U10G C13U | 1.24
82 | U7C G9U U10C U11G C13A | 1.24
83 | U7C U10C U11A C13G | 1.21
84 | U7G U8C G9C U10C C13G | 1.21
85 | U8C G9A U10A U11G C12G C13A | 1.16
86 | U8A G9U U11A C12A C13G | 1.18
87 | U8G G9A U10G C13U | 1.58
88 | U7A G9A U10G U11C C13A | 1.19
89 | U7C U8A G9A U10C U11C C12U | 1.04
90 | U7A U8G G9C U10C U11C C12U | 0.975
91 | U7G U11G C12A C13G | 1.11
92 | U7A U8C G9U U11C C12G C13A | 1.13
93 | G9C U10G U11C C12A | 1.37
94 | U8C U10A U11A C13U | 1.21
95 | U7G G9U U10A C13G | 1.18
96 | G9A U10C U11C C12A | 1.1

Row | Variant | aptazyme ON/OFF ratio
97 | U8A G9U U10C C12G C13G | 1.18
98 | U7C U10G U11C C12G C13A | 1.22
99 | U8G G9C U10G U11G C12G C13U | 1.3
100 | U8A G9A U10G C12U C13G | 1.17
101 | U7G U8A G9A U11G C12A | 1.08
102 | U7G G9U U10A U11G | 3.03
103 | U7G U8G G9C C12U | 1.94
104 | U7C U8G G9A U10A U11G C12G C13U | 1.33
105 | U7A G9A U11G C12G C13U | 1.42
106 | G9C U10C C13G | 1.06
107 | U7C U8A U10A U11A C12U | 1.26
108 | U7A U8A U10A U11C C12A C13A | 1.04
109 | U7C G9U U10C U11A | 1.11
110 | U7A U8G G9A U10G U11C C13A | 1.12
111 | U8G G9A U10G U11A C12U C13U | 1.47
112 | U7A U8G G9U U10A U11A C12G | 1.33
113 | U7A G9C U11A C12U C13G | 1.07
114 | U8A G9U C13A | 1.24
115 | U7A U10C U11A C12G C13G | 1.26
116 | U7A U8C G9A U10C C12G | 1.29
117 | U8G G9A U10C U11G C12G | 1.45
118 | U8A U10C U11A C12U C13U | 1.31
119 | U8A U10C U11A C13G | 1.07
120 | U8G G9C U10G U11A C12A C13U | 1.11

Row | Variant | aptazyme ON/OFF ratio
121 | U7G U8C C12G | 1.12
122 | G9A U10A U11A C12A C13U | 1.97
123 | U8G U10C U11C C12G C13G | 1.09
124 | U7A U8G G9A U10G U11C C12U C13G | 1.09
125 | U7G U8G G9C U10G U11G C12G | 1.15
126 | U7C G9C U10C U11C C12U C13A | 1.03
127 | U7C U8G G9C U10C U11A C12A C13U | 1.09
128 | U7G U8C U11C C12G | 1.38
129 | U8G G9U U10A U11G C12A C13G | 1.06
130 | U8C G9C U10G U11A C12G C13U | 1.11
131 | U7A U8C G9A U10C U11G C12G C13A | 1.23
132 | U7C G9C U10A U11C C12A C13A | 1.08
133 | U7G U8A G9C U10A C12A C13G | 1.01
134 | U7A U8C G9A U10G U11C C12U | 1.06
135 | U7A U8A G9C U10G U11A C12A C13U | 1.2
136 | U7G G9U U10A C13U | 1.35
137 | U7A G9C U10G U11G C12G | 1.16
138 | G9A U10C U11G C12U C13A | 1.37
139 | G9C C12A C13U | 1.35
140 | U7A U8C G9U U10C C12A C13U | 1.26
141 | U7A U8C G9C U11A | 1.11
142 | U8C U11A C12U C13A | 1.21
143 | U8C G9U U10G U11G C12G C13G | 1.1
144 | U8A U10C | 4.03

Row | Variant | aptazyme ON/OFF ratio
145 | U7C U8G U10A C12U C13G | 1.13
146 | U8G G9U U10C C13G | 1.03
147 | U8C G9A U11A C12G | 1.18
148 | U7G G9U U10G C12U C13U | 1.25
149 | U7G U8A G9U U11A C12A C13U | 1.15
150 | U8C U10C C12A C13G | 1.17
151 | U7G U8G U10A U11C C12U C13G | 1.25
152 | U8C G9A U10G C13A | 1.28
153 | U7A U8A U10C U11C C12G C13G | 1.21
154 | U7C U8G G9U U10C | 2.72
155 | U7G U8C G9A U10C U11G C12A C13U | 1.16
156 | U7C U8C G9C U10C C12U C13A | 1.1
157 | U7A G9U U10C U11A C12G C13U | 1.12
158 | U8C G9C U11G C12A | 1.13
159 | U8C U11G C12U | 1.26
160 | U7G U8A G9A U10C C12U | 1.09
161 | U8C G9A U10A U11C C12A C13G | 1.18
162 | U7C U8G U10G U11G C12G C13G | 1.15
163 | U7G U8C G9U U10G U11A C12U C13A | 1.21
164 | U7C U8A G9A U11A C12G | 1.2
165 | U7G U8A G9A U10C U11G C12G C13U | 1.08
166 | U7G U8G G9C U10G U11C C12U C13A | 1.15
167 | U7G U8G U10C U11C C12A C13A | 1.3
